# Measurements taken from US20220315554A1, “COMPOUNDS COMPRISING A […] LIGAND AND USE THEREOF” (priority 2019, published 2022).
# Numbered stars: 1 amine (or outer) side, 2 acyl side, 3 side chain; on linkers, the order of the positions; unused ones are H or OH. Bridge positions count the residues as written; N and C are the ends. Ends that are not written are not given here. * marks the point of attachment. Ttds = 1,13-diamino-4,7,10-trioxatridecan-succinamic acid, NCCCOCCOCCOCCCNC(=O)CCC(=O)*; tMeBn(DOTA-AET) = Cys-Cys bridge (thioethers) carrying DOTA-AET; tMeBn(DOTA-PP) = Cys-Cys bridge (thioethers) carrying DOTA-PP; DOTA = O=C(O)CN1CCN(CC(=O)O)CCN(CC(=O)*)CCN(CC(=O)O)CC1; mXylylene = c1cc(C[*:1])cc(C[*:2])c1; tMeBn(LuDOTA-AET) = not defined here; 2Lut = Cys-Cys bridge (thioethers); 3Lut = Cys-Cys bridge (thioethers); Pentanesulfonyl = CCCCCS(=O)(=O)*; PentylNH‑urea = CCCCCNC(=O)*; Hexanoyl = CCCCCC(=O)*
# T1: Recombinant human FAP (R&D systems, #3715-SE) (human)
# T1 sequence: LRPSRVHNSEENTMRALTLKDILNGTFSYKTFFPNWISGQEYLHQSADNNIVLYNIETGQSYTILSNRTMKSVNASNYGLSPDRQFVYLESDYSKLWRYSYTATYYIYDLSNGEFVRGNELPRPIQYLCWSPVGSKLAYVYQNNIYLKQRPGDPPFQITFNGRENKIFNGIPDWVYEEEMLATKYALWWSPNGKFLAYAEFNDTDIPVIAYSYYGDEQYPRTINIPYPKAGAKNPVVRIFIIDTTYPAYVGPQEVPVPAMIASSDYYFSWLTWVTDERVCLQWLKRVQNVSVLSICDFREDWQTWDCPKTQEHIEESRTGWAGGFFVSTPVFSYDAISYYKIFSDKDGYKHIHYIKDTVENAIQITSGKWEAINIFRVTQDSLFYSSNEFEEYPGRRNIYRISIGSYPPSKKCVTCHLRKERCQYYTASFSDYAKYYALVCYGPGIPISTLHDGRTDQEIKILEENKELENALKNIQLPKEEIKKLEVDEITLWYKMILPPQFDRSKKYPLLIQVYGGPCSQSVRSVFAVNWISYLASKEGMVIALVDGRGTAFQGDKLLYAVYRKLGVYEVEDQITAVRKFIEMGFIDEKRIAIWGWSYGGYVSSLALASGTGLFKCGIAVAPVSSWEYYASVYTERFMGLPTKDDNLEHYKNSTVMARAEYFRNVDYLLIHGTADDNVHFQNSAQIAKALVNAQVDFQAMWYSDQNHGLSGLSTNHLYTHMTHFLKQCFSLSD
# B1: Hex-[Cys(tMeBn(DOTA-AET))-Pro-Pro-Thr-Gln-Phe-Cys]-asp-NH2 (peptide)
# peptide: CPPTQFCD
# modifications: N-terminal Hex (hexanoyl); Cys1-Cys7 bridged by tMeBn(DOTA-AET) (thioethers); D-Asp8 (asp); C-terminal amide
# B2: Ac-[Cys(3MeBn)-Pro-Pro-Thr-Glu-Phe-Cys]-Asp-His-Phe-Arg-Asp-NH2 (peptide)
# peptide: Ac-CPPTEFCDHFRD-NH2
# modifications: linker 1-7 via mXylylene
# SMILES: CC(=O)N[C@H]1CSCc2cccc(c2)CSC[C@@H](C(=O)N[C@@H](CC(=O)O)C(=O)N[C@@H](Cc2c[nH]cn2)C(=O)N[C@@H](Cc2ccccc2)C(=O)N[C@@H](CCCNC(=N)N)C(=O)N[C@@H](CC(=O)O)C(N)=O)NC(=O)[C@H](Cc2ccccc2)NC(=O)[C@H](CCC(=O)O)NC(=O)[C@H]([C@@H](C)O)NC(=O)[C@@H]2CCCN2C(=O)[C@@H]2CCCN2C1=O
# B3: PentylNH-urea-[Cys(3MeBn)-Pro-Pro-Thr-Gln-Phe-Cys]-Asp-NH2 (peptide)
# peptide: {PentylNH‑urea}-CPPTQFCD-NH2
# modifications: linker 1-7 via mXylylene
# SMILES: CCCCCNC(=O)N[C@H]1CSCc2cccc(c2)CSC[C@@H](C(=O)N[C@@H](CC(=O)O)C(N)=O)NC(=O)[C@H](Cc2ccccc2)NC(=O)[C@H](CCC(N)=O)NC(=O)[C@H]([C@@H](C)O)NC(=O)[C@@H]2CCCN2C(=O)[C@@H]2CCCN2C1=O
# B4: Hex-[Cys(3MeBn)-Pro-Pro-Thr-Gln-Phe-Cys]-Asp-Ape-NH-DOTA' (peptide)
# peptide: Hexanoyl-CPPTQFCD
# modifications: linker 1-7 via mXylylene; not fully specified (C-terminus); printed as Hex-[Cys(3MeBn)-Pro-Pro-Thr-Gln-Phe-Cys]-Asp-Ape(DOTA)
# B5: Hex-[Cys(3MeBn)-Pro-Pro-Thr-Gln-Phe-Cys]-Asp-Ttds-Ape-NH-DOTA' (peptide)
# peptide: Hexanoyl-CPPTQFCD
# modifications: linker 1-7 via mXylylene; not fully specified (C-terminus); printed as Hex-[Cys(3MeBn)-Pro-Pro-Thr-Gln-Phe-Cys]-Asp-Ttds-Ape(DOTA)
# B6: Hex-[Cys(3MeBn)-Pro-Pro-Thr-Gln-Phe-Cys]-Asp-NH2 (peptide)
# peptide: Hexanoyl-CPPTQFCD-NH2
# modifications: linker 1-7 via mXylylene
# SMILES: CCCCCC(=O)N[C@H]1CSCc2cccc(c2)CSC[C@@H](C(=O)N[C@@H](CC(=O)O)C(N)=O)NC(=O)[C@H](Cc2ccccc2)NC(=O)[C@H](CCC(N)=O)NC(=O)[C@H]([C@@H](C)O)NC(=O)[C@@H]2CCCN2C(=O)[C@@H]2CCCN2C1=O
# B7: Hex-[Cys(3MeBn)-Pro-Pro-Thr-Glu-Phe-Cys]-Asp-His-Phe-Arg-Asp-NH2 (peptide)
# peptide: Hexanoyl-CPPTEFCDHFRD-NH2
# modifications: linker 1-7 via mXylylene
# SMILES: CCCCCC(=O)N[C@H]1CSCc2cccc(c2)CSC[C@@H](C(=O)N[C@@H](CC(=O)O)C(=O)N[C@@H](Cc2c[nH]cn2)C(=O)N[C@@H](Cc2ccccc2)C(=O)N[C@@H](CCCNC(=N)N)C(=O)N[C@@H](CC(=O)O)C(N)=O)NC(=O)[C@H](Cc2ccccc2)NC(=O)[C@H](CCC(=O)O)NC(=O)[C@H]([C@@H](C)O)NC(=O)[C@@H]2CCCN2C(=O)[C@@H]2CCCN2C1=O
# B8: Pentyl-SO2-[Cys(3MeBn)-Pro-Pro-Thr-Gln-Phe-Cys]-Asp-NH2 (peptide)
# peptide: Pentanesulfonyl-CPPTQFCD-NH2
# modifications: linker 1-7 via mXylylene
# SMILES: CCCCCS(=O)(=O)N[C@H]1CSCc2cccc(c2)CSC[C@@H](C(=O)N[C@@H](CC(=O)O)C(N)=O)NC(=O)[C@H](Cc2ccccc2)NC(=O)[C@H](CCC(N)=O)NC(=O)[C@H]([C@@H](C)O)NC(=O)[C@@H]2CCCN2C(=O)[C@@H]2CCCN2C1=O
# B9: Hex-[Cys(tMeBn(LuDOTA-AET))-Pro-Pro-Thr-Gln-Phe-Cys]-OH (peptide)
# peptide: Hexanoyl-CPPTQFC-OH
# modifications: linker 1-7 via tMeBn(LuDOTA-AET); reading uncertain; also: Lu-DOTA complex, printed as Hex-[Cys(tMeBn(LuDOTA-AET))-Pro-Pro-Thr-Gln-Phe-Cys]-OH
# Biological target: T1, Recombinant human FAP (R&D systems, #3715-SE) (human)
# Assay: not given
# Conditions: not given
row,Binder,pIC50 Category (Activity) [pIC50]
1,B1,> 8
2,B2,> 8
3,B3,> 8
4,Hexanoyl-CPPTQFCD-NH2 (linker 1-7 via tMeBn(LuDOTA-PP); also: Lu-DOTA complex) [Hex-[Cys(tMeBn(LuDOTA-PP))-Pro-Pro-Thr-Gln-Phe-Cys]-Asp-NH2],> 8
5,Hexanoyl-CPPTQFCD-OH (linker 1-7 via tMeBn(DOTA-AET)) [Hex-[Cys(tMeBn(DOTA-AET))-Pro-Pro-Thr-Gln-Phe-Cys]-Asp-OH],> 8
6,Hexanoyl-CPPTEFC-NH2 (linker 1-7 via tMeBn(DOTA-AET)) [Hex-[Cys(tMeBn(DOTA-AET))-Pro-Pro-Thr-Glu-Phe-Cys]-NH2],> 8
7,Hexanoyl-CPPTQFCD-NH2 (linker 1-7 via tMeBn(InDOTA-PP); also: In-DOTA complex) [Hex-[Cys(tMeBn(InDOTA-PP))-Pro-Pro-Thr-Gln-Phe-Cys]-Asp-NH2],> 8
8,Pentanesulfonyl-CPPTQFCD-NH2 (linker 1-7 via tMeBn(DOTA-PP)) [Pentyl-SO2-[Cys(tMeBn(DOTA-PP))-Pro-Pro-Thr-Gln-Phe-Cys]-Asp-NH2],> 8
9,Hexanoyl-CPPTQFCD-NH2 (linker 1-7 via tMeBn(DOTA-AET)) [Hex-[Cys(tMeBn(DOTA-AET))-Pro-Pro-Thr-Gln-Phe-Cys]-Asp-NH2],> 8
10,B4,> 8
11,Hexanoyl-CPPTQFCS-OH (linker 1-7 via tMeBn(DOTA-AET)) [Hex-[Cys(tMeBn(DOTA-AET))-Pro-Pro-Thr-Gln-Phe-Cys]-Ser-OH],> 8
12,B5,> 8
13,B6,> 8
14,B7,> 8
15,Hexanoyl-CPPTQFCD-NH2 (linker 1-7 via tMeBn(GaDOTA-PP)) [Hex-[Cys(tMeBn(GaDOTA-PP))-Pro-Pro-Thr-Gln-Phe-Cys]-Asp-NH2],> 8
16,Hexanoyl-CPPTQFCD-NH2 (linker 1-7 via tMeBn(EuDOTA-PP); also: Eu-DOTA complex) [Hex-[Cys(tMeBn(EuDOTA-PP))-Pro-Pro-Thr-Gln-Phe-Cys]-Asp-NH2],> 8
17,Hexanoyl-CPPTQFCD-NH2 (linker 1-7 via 2Lut) [Hex-[Cys(2Lut)-Pro-Pro-Thr-Gln-Phe-Cys]-Asp-NH2],> 8
18,Hexanoyl-CPPTQFCD-NH2 (linker 1-7 via 3Lut) [Hex-[Cys(3Lut)-Pro-Pro-Thr-Gln-Phe-Cys]-Asp-NH2],> 8
19,{DOTA-Ttds}-LCPPTEFCDHFRD-NH2 (linker 2-8 via mXylylene) [DOTA-Ttds-Leu-[Cys(3MeBn)-Pro-Pro-Thr-Glu-Phe-Cys]-Asp-His-Phe-Arg-Asp-NH2],> 8
20,B8,> 8

# Biological target: human fibroblast activation protein (FAP) on FAP-expressing human WI-38 fibroblasts (human)
# Assay: competition FACS, WI-38 cells, vs Cy5-labeled compound; A: pIC50 >8.0
# Conditions: remark: other sources report otherwise
row,Binder,pIC50 Category (FACS) [pIC50]
1,Hexanoyl-CPPTQFC-NH2 (linker 1-7 via tMeBn(DOTA-AET)) [Hex-[Cys(tMeBn(DOTA-AET))-Pro-Pro-Thr-Gln-Phe-Cys]-NH2],> 8
2,B9,> 8
3,Hexanoyl-CPPTQFC-OH (linker 1-7 via tMeBn(DOTA-AET)) [Hex-[Cys(tMeBn(DOTA-AET))-Pro-Pro-Thr-Gln-Phe-Cys]-OH],> 8
4,Pentanesulfonyl-CPPTQFC-OH (linker 1-7 via tMeBn(DOTA-AET)) [Pentyl-SO2-[Cys(tMeBn(DOTA-AET))-Pro-Pro-Thr-Gln-Phe-Cys]-OH],> 8
5,Hexanoyl-CPPTQFC-OH (linker 1-7 via tMeBn(EuDOTA-AET); also: Eu-DOTA complex) [Hex-[Cys(tMeBn(EuDOTA-AET))-Pro-Pro-Thr-Gln-Phe-Cys]-OH],> 8
6,Hexanoyl-CPPTQFC-OH (linker 1-7 via tMeBn(InDOTA-AET); also: In-DOTA complex) [Hex-[Cys(tMeBn(InDOTA-AET))-Pro-Pro-Thr-Gln-Phe-Cys]-OH],> 8
